Measurements from the Immune Epitope Database (IEDB).

Key:
Test in all cases: IEDB peptide-MHC binding, purified MHC/competitive/radioactivity; filed as Kd, often an IC50 or EC50 that approximates it; ≥ and ≤ were set here for values at or beyond the usual limits of such assays
[1] = molecular target: HLA-B*45:01
[2] = molecular target: HLA-B*18:01
[3] = molecular target: HLA-B*40:01
[4] = molecular target: HLA-B*44:03
[5] = molecular target: HLA-B*40:02
[6] = molecular target: HLA-B*44:02
[7] = molecular target: HLA-B*54:01
[8] = molecular target: HLA-B*07:02
[9] = molecular target: HLA-B*51:01
[10] = molecular target: HLA-B*53:01
[11] = molecular target: HLA-B*35:01
[12] = molecular target: HLA-A*02:06
[13] = molecular target: HLA-A*68:02
[14] = molecular target: HLA-A*02:02
[15] = molecular target: HLA-A*02:03
[16] = molecular target: HLA-A*26:01; settings: source organism: Dengue virus 2 Jamaica/1409/1983
[17] = molecular target: HLA-A*02:01
[18] = source organism: Lassa virus Josiah
[19] = source organism: Mammarenavirus choriomeningitidis
[20] = source organism: SARS coronavirus Tor2
[21] = source organism: Vaccinia virus WR
[22] = source organism: Dengue virus 4 Philippines/H241/1956
[23] = source organism: Trypanosoma cruzi
[24] = source organism: Triticum aestivum
[25] = source organism: Lymphocytic choriomeningitis virus (strain WE)
[26] = source organism: Hepacivirus hominis

Question: Which Kd [1, 18] does the source give for AELLNNQFGT here?
Answer: 11400 nM

Question: And the Kd [2, 18]?
Answer: ≥ 70400 nM

Question: And the Kd [3, 18]?
Answer: 2320 nM

Question: And the Kd [4, 18]?
Answer: 16600 nM

Question: And the Kd [5, 18]?
Answer: 1120 nM

Question: What about the Kd [6, 18] of the same sequence?
Answer: 3240 nM

Question: Which Kd [1, 19] does the source give for AEQLMSLAA here?
Answer: 1.7 nM

Question: What about the Kd [2, 19] of the same sequence?
Answer: 3640 nM

Question: And the Kd [3, 19]?
Answer: 1850 nM

Question: What about the Kd [4, 19] of the same sequence?
Answer: 4480 nM

Question: What about the Kd [5, 19] of the same sequence?
Answer: 3.31 nM

Question: And the Kd [6, 19]?
Answer: 214 nM

Question: With AEVQIDRLI as the sequence, how does the Kd [1, 20] read?
Answer: 985 nM

Question: What about the Kd [2, 20] of the same sequence?
Answer: ≥ 77500 nM

Question: And the Kd [3, 20]?
Answer: 10900 nM

Question: And the Kd [4, 20]?
Answer: 94 nM

Question: What about the Kd [5, 20] of the same sequence?
Answer: 92.4 nM

Question: And the Kd [6, 20]?
Answer: 90.1 nM

Question: Which Kd [7, 21] does the source give for APGSPTNLEF here?
Answer: ≥ 39400 nM

Question: What about the Kd [8, 21] of the same sequence?
Answer: 54.2 nM

Question: What about the Kd [9, 21] of the same sequence?
Answer: ≥ 69600 nM

Question: What about the Kd [10, 21] of the same sequence?
Answer: 556 nM

Question: What about the Kd [11, 21] of the same sequence?
Answer: 850 nM

Question: What does the source list for APHGVVFLHV?
Answer: Kd [7, 20]: 288 nM; Kd [8, 20]: 254 nM; Kd [9, 20]: 7810 nM; Kd [10, 20]: 749 nM; Kd [11, 20]: 4360 nM

Question: For DLENRCQSL, which Kd ([12]; source organism: Homo sapiens) is on record?
Answer: ≥ 78700 nM

Question: What about the Kd ([13]; source organism: Homo sapiens) of the same sequence?
Answer: ≥ 107000 nM

Question: And the Kd ([14]; source organism: Homo sapiens)?
Answer: 12400 nM

Question: And the Kd ([15]; source organism: Homo sapiens)?
Answer: ≥ 32800 nM

Question: How did the Kd [1, 19] turn out when EDQFLPFMS was run?
Answer: ≥ 23900 nM

Question: What about the Kd [2, 19] of the same sequence?
Answer: ≥ 77500 nM

Question: And the Kd [3, 19]?
Answer: 5670 nM

Question: What about the Kd [4, 19] of the same sequence?
Answer: ≥ 39600 nM

Question: What about the Kd [5, 19] of the same sequence?
Answer: 7960 nM

Question: What about the Kd [6, 19] of the same sequence?
Answer: 17400 nM

Question: For EEAALCTFLL, which Kd [1, 20] is on record?
Answer: 89 nM

Question: And the Kd [2, 20]?
Answer: 163 nM

Question: What about the Kd [3, 20] of the same sequence?
Answer: 43.7 nM

Question: What about the Kd [4, 20] of the same sequence?
Answer: 13.1 nM

Question: What about the Kd [5, 20] of the same sequence?
Answer: 17.7 nM

Question: And the Kd [6, 20]?
Answer: 21.6 nM

Question: Which Kd [7, 21] does the source give for EPISILDRI here?
Answer: 820 nM

Question: And the Kd [8, 21]?
Answer: ≥ 28800 nM

Question: And the Kd [9, 21]?
Answer: 37.3 nM

Question: What about the Kd [10, 21] of the same sequence?
Answer: 194 nM

Question: And the Kd [11, 21]?
Answer: 4810 nM

Question: With ESLETLMLV as the sequence, how does the Kd [13, 22] read?
Answer: 162 nM

Question: ETACLGKSYA was tested. Which Kd [16] did it give?
Answer: 163 nM

Question: What about the Kd ([13]; source organism: Dengue virus 2 Jamaica/1409/1983) of the same sequence?
Answer: 7.48 nM

Question: For FANHAFTLV, which Kd [12, 23] is on record?
Answer: 1.2 nM

Question: And the Kd [13, 23]?
Answer: 23.2 nM

Question: What about the Kd [17, 23] of the same sequence?
Answer: 68.7 nM

Question: What about the Kd [14, 23] of the same sequence?
Answer: 32.7 nM

Question: And the Kd [15, 23]?
Answer: 0.226 nM

Question: Which results are given for FPGLYGASI?
Answer: Kd [7, 21]: 18.4 nM; Kd [8, 21]: 80.9 nM; Kd [9, 21]: 137 nM; Kd [10, 21]: 9.2 nM; Kd [11, 21]: 506 nM

Question: What does the source list for FPSTQRDYY?
Answer: Kd [7, 21]: 3940 nM; Kd [8, 21]: ≥ 77500 nM; Kd [9, 21]: ≥ 77500 nM; Kd [10, 21]: 1.15 nM; Kd [11, 21]: 1.08 nM

Question: IDYDCVSFCY was tested. Which Kd [1, 20] did it give?
Answer: 5800 nM

Question: And the Kd [2, 20]?
Answer: 3000 nM

Question: And the Kd [3, 20]?
Answer: 10500 nM

Question: What about the Kd [4, 20] of the same sequence?
Answer: 759 nM

Question: What about the Kd [5, 20] of the same sequence?
Answer: ≥ 38500 nM

Question: And the Kd [6, 20]?
Answer: 1550 nM

Question: What does the source list for IPKFKVTGSY?
Answer: Kd [7, 21]: ≥ 58200 nM; Kd [8, 21]: 6600 nM; Kd [9, 21]: ≥ 69600 nM; Kd [10, 21]: ≥ 69900 nM; Kd [11, 21]: 1230 nM

Question: IPPYCTIAPV was tested. Which Kd [7, 24] did it give?
Answer: 90.5 nM

Question: What about the Kd [8, 24] of the same sequence?
Answer: 940 nM

Question: And the Kd [9, 24]?
Answer: ≥ 30000 nM

Question: And the Kd [10, 24]?
Answer: ≥ 69900 nM

Question: What about the Kd [11, 24] of the same sequence?
Answer: ≥ 30400 nM

Question: With ITVSGLYPL as the sequence, how does the Kd [13, 22] read?
Answer: 12.3 nM

Question: With KEPVESCPL as the sequence, how does the Kd [1, 25] read?
Answer: ≥ 58400 nM

Question: And the Kd [2, 25]?
Answer: ≥ 77500 nM

Question: And the Kd [3, 25]?
Answer: 1920 nM

Question: And the Kd [4, 25]?
Answer: ≥ 78100 nM

Question: What about the Kd [5, 25] of the same sequence?
Answer: 155 nM

Question: What about the Kd [6, 25] of the same sequence?
Answer: ≥ 77900 nM

Question: What does the source list for KLKNKHEAMI?
Answer: Kd ([12]; source organism: Homo sapiens): ≥ 50300 nM; Kd ([13]; source organism: Homo sapiens): 10300 nM

Question: Which results are given for KLRGMGFNAV?
Answer: Kd [12, 26]: 496 nM; Kd [13, 26]: ≥ 40600 nM; Kd [17, 26]: 454 nM; Kd [14, 26]: 161 nM; Kd [15, 26]: 2.05 nM

Question: Which Kd [7, 20] does the source give for KPNTWCLRCL here?
Answer: ≥ 31100 nM

Question: What about the Kd [8, 20] of the same sequence?
Answer: 339 nM

Question: What about the Kd [9, 20] of the same sequence?
Answer: ≥ 69600 nM

Question: What about the Kd [10, 20] of the same sequence?
Answer: 2440 nM

Question: What about the Kd [11, 20] of the same sequence?
Answer: ≥ 69900 nM

Question: How did the Kd [7, 20] turn out when KPPISFPLCA was run?
Answer: 3870 nM

Question: What about the Kd [8, 20] of the same sequence?
Answer: 17200 nM

Question: What about the Kd [9, 20] of the same sequence?
Answer: 9520 nM

Question: What about the Kd [10, 20] of the same sequence?
Answer: ≥ 31500 nM

Question: And the Kd [11, 20]?
Answer: ≥ 42500 nM

Question: With LEDFKPRSQM as the sequence, how does the Kd [1, 20] read?
Answer: 17700 nM

Question: And the Kd [2, 20]?
Answer: ≥ 37800 nM

Question: What about the Kd [3, 20] of the same sequence?
Answer: 1520 nM

Question: What about the Kd [4, 20] of the same sequence?
Answer: 1010 nM

Question: And the Kd [5, 20]?
Answer: 21.7 nM

Question: And the Kd [6, 20]?
Answer: 622 nM
